Test results: PMC12853789, “Identification of receptor-binding domains of Bacteroidales antibacterial pore-forming toxins” (The Journal of Biological Chemistry, 2025)

Target: T1, BSAP-1 (BF638R_1646), recombinant soluble protein with N-terminal His tag (Bacteroides fragilis 638R, UniProt E1WTV1 17-372)
T1 construct: BSAP-1 of Bacteroides fragilis 638R (BF638R_1646, GenBank CBW22174.1), without the N-terminal signal peptide and the lipidated cysteine (C16); the protein ends at P372; a Ser-Ser-Gly linker follows the His tag; Limits follow from 'excluding the signal peptide and conserved cysteine' (C16) and the CTD's end at P372; no cleavage of the tag is told; also called full-length BSAP-1; purified BSAP-1; …
T1 sequence: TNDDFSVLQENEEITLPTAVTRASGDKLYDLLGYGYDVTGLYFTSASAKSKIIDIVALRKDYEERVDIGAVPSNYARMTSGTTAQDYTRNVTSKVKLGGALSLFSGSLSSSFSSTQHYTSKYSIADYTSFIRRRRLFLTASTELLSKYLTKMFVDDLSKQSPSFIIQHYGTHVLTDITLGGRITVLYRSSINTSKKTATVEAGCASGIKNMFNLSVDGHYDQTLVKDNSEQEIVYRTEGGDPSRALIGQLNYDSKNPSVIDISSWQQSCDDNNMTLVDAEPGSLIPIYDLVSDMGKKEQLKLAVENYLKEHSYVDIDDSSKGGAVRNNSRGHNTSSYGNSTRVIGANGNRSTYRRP
Experiment: cryo-EM structure; peak 1 fractions of the BSAP-1 pull-down, in DDM, graphene oxide coated grids; map of the complex ~7 Å, local refinement on B1R^S 4.45 Å
Conditions: one partner purified

B1: B1R^S, BSAP-1 receptor (BF9343_1563), untagged, overexpressed in Bacteroides thetaiotaomicron (receptor, Bacteroides fragilis NCTC 9343, UniProt Q5LEV6 1-556, looked up)
chain: QTVYDAAKITGKDLNGTARFVGMGGAMGALGGDISTIGTNPAGIGIYRSNDFMTSFGFSSYGTESKYLGDKFKSDKIQGSFDNLGFVFASKIGNETSLRYVNFGFNYHKAKSFYKNMNMKGGLGNSSQTYQMAQQASGITKWGDYPYDDPEIGWLSILGYDGWLISDITTDKMNAAGKPNSPYVDKDGNQRYDANGKPLYTTPGNYYGMYDDGVANFHSQERGGIDQYDFNVAFNFNDRFYLGLTLGAYAVDYSKYTYYSEAYTGANAPQNYNLRSWNKVRGSGFDLKLGTIIRPFENSPFRIGLAIHTPTFYNLDYKTSARVESDVLNVETGKIDQWSVDTRDKLPGNGDMVREFRLQTPWTYNVSLGYTIGTSLALGAEYEYQDYSTMKFRGPTGSSSEFTFENSTRPMMKGVNTLRLGLEYKVIPQFALRAGYNYTSAIFHGDAFKDLPYYSIQTDTDWANTKALSNYTLGIGYRGSVFYADLAYKFSTYNEDFYPFVNKYEENNATTVLTPETTKVTNTRSQVLFTLGLRF
notes: B1R^S, outer membrane beta-barrel protein of Bacteroides fragilis NCTC 9343 (BF9343_1563, GenBank CAH07344.1); theoretical molecular weight 62 kDa; untagged; in the pull-down it stood in a membrane fraction, in microscopy on cells
For B1, the “stoichiometry N” value was 1.
